According to US20090258013A1 (Genentech, published 2009):

T1: TNFRSF10C (library protein) (UniProt O14798 26-236, limits assumed)
T1 sequence (looked up): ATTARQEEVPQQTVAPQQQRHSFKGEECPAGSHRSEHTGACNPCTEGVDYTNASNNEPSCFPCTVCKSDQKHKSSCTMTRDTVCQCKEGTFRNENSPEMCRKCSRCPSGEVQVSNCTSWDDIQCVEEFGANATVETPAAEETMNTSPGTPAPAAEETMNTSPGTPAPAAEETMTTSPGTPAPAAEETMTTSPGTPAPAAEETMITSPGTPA

T2: IL-19 (library protein) (UniProt Q9UHD0 25-177)
T2 sequence (looked up): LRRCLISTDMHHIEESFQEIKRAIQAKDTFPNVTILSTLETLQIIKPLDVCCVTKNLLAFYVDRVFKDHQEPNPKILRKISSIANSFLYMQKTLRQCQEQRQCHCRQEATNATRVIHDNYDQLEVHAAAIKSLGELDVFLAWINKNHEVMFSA

T3: ESAM (library protein) (UniProt Q96AP7 30-248, limits assumed)
T3 sequence (looked up): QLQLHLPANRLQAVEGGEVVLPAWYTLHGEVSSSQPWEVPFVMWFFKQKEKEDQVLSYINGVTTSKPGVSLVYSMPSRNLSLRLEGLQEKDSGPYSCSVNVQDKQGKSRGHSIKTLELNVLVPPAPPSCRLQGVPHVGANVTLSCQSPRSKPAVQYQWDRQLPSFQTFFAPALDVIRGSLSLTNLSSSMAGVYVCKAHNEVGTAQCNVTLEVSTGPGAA

T4: IGFBP4 (library protein) (UniProt P22692 22-258)
T4 sequence (looked up): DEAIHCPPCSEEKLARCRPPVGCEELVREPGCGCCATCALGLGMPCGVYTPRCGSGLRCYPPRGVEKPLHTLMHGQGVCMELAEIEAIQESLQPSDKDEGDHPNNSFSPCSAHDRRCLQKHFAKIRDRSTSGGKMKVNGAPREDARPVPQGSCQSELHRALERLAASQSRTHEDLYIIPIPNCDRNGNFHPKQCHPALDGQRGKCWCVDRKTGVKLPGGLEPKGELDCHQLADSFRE

B1: PVR-Fc fusion protein (Fc fusion, UniProt P15151 21-343, looked up)
chain: WPPPGTGDVVVQAPTQVPGFLGDSVTLPCYLQVPNMEVTHVSQLTWARHGESGSMAVFHQTQGPSYSESKRLEFVAARLGAELRNASLRMFGLRVEDEGNYTCLFVTFPQGSRSVDIWLRVLAKPQNTAEVQKVQLTGEPVPMARCVSTGGRPPAQITWHSDLGGMPNTSQVPGFLSGTVTVTSLWILVPSSQVDGKNVTCKVEHESFEKPQLLTVNLTVYYPPEVSISGYDNNWYLGQNEATLTCDARSNPEPTGYNWSTTMGPLPPFAVAQGAQLLIRPVDKPINTTLICNVTNALGARQAELTVQVKEGPPSEHSGISRN
notes: Found in a library of secreted proteins fused to hexahistidine or Fc tags; also called poliovirus receptor; not shown: Fc tag
B2: CD226-Fc (amino acids 1-259 of CD226 fused to the Fc region of human IgG1) (Fc fusion, UniProt Q15762 19-259, looked up)
chain: EEVLWHTSVPFAENMSLECVYPSMGILTQVEWFKIGTQQDSIAIFSPTHGMVIRKPYAERVYFLNSTMASNNMTLFFRNASEDDVGYYSCSLYTYPQGTWQKVIQVVQSDSFEAAVPSNSHIVSEPGKNVTLTCQPQMTWPVQAVRWEKIQPRQIDLLTYCNLVHGRNFTSKFPRQIVSNCSHGRWSVIVIPDVTVSDSGLYRCYLQASAGENETFVMRLTVAEGKTDNQYTLFVAGGTVL
notes: range 1-259; also called DNAM; not shown: Fc region of human IgG1
B3: CD96-Fc (amino acids 1-500 of CD96 fused to the Fc region of human IgG1) (Fc fusion, UniProt P40200 22-500, looked up, not shown: a dimerising Fc or GST)
chain: VWEKTVNTEENVYATLGSDVNLTCQTQTVGFFVQMQWSKVTNKIDLIAVYHPQYGFYCAYGRPCESLVTFTETPENGSKWTLHLRNMSCSVSGRYECMLVLYPEGIQTKIYNLLIQTHVTADEWNSNHTIEIEINQTLEIPCFQNSSSKISSEFTYAWSVENSSTDSWVLLSKGIKEDNGTQETLISQNHLISNSTLLKDRVKLGTDYRLHLSPVQIFDDGRKFSCHIRVGPNKILRSSTTVKVFAKPEIPVIVENNSTDVLVERRFTCLLKNVFPKANITWFIDGSFLHDEKEGIYITNEERKGKDGFLELKSVLTRVHSNKPAQSDNLTIWCMALSPVPGNKVWNISSEKITFLLGSEISSTDPPLSVTESTLDTQPSPASSVSPARYPATSSVTLVDVSALRPNTTPQPSNSSMTTRGFNYPWTSSGTDTKKSVSRIPSETYSSSPSGAGSTLHDNVFTSTARAFSEVPTTANGST
B4: gD-tagged full-length TIGIT expressed on stably transfected CHO cells (receptor)
chain: KYALADASLKMADPNRFRGKDLPVLMMTGTIETTGNISAEKGGSIILQCHLSSTTAQVTQVNWEQQDQLLAICNADLGWHISPSFKDRVAPGPGLGLTLQSLTVNDTGEYFCIYHTYPDGTYTGRIFLEVLESSVAEHGARFQIPLLGAMAATLVVICTAVIVVVALTRKKKALRIHSVEGDLRRKSAGQEEWSPSAPSPPGSCVQAEAAPAGLCGEQRGEDCAELHDYFNVLSYRSLGNCSFFTETG
notes: also called CHO-TIGIT; CHO cells expressing TIGIT
B5: OTOR (library protein) (other, UniProt Q9NRC9 18-128, looked up, not shown: a dimerising Fc or GST)
chain: VHGIFMDRLASKKLCADDECVYTISLASAQEDYNAPDCRFINVKKGQQIYVYSKLVKENGAGEFWAGSVYGDGQDEMGVVGYFPRNLVKEQRVYQEATKEVPTTDIDFFCE
B6: TIGIT-Fc (amino acids 1-138 of human TIGIT fused immediately preceding the Fc region of human IgG1) (Fc fusion)
chain: APLASGMMTGTIETTGNISAEKGGSIILQCHLSSTTAQVTQVNWEQQDQLLAICNADLGWHISPSFKDRVAPGPGLGLTLQSLTVNDTGEYFCIYHTYPDGTYTGRIFLEVLESSVAEHGARF
notes: Expressed in CHO cells; Biotinylated for flow cytometry and 125I-iodinated for radioligand assays; also called TIGIT-Fc fusion protein; not shown: Fc region of human IgG1

What was measured:
[1] = molecular target: T5, gD-tagged full-length PVR expressed on stably transfected CHO cells (UniProt P15151 21-417, limits assumed); experiment: flow cytometry, biotinylated ligand + streptavidin-PE vs receptor expression on CHO transfectants
T5 construct: whole, on cells; also called CHO-PVR; PVR-expressing CHO cells
Source text: (§1) Fc fusion proteins were biotinylated via amine coupling using NHS-PEO4-Biotin (Pierce) in PBS. Binding of biotin-ligands was detected using phycoerythrin-conjugated streptavidin (Caltag). Mouse monoclonal antibody to gD tag (Genentech) was conjugated to AlexaFluor 647 (Invitrogen). Antibodies were conjugated to appropriate fluor labels using standard techniques. Cells were stained per the manufacturer's instructions. Prior to staining, cells were blocked with appropriate sera or purified IgG. Acquisition was performed on a FACSCalibur (BD Biosciences) and analyzed with JoFlo software (Tree Star, Inc.). Forward and side scatter gated viable cells.

[2] = molecular target: T6, gD-tagged full-length PVRL2 expressed on stably transfected CHO cells (UniProt Q92692 32-538, limits assumed); experiment: as above
T6 construct: whole, on cells
Source text: as §1

[3] = molecular target: T5, gD-tagged full-length PVR expressed on …; experiment: flow cytometry, biotinylated Fc-ligand on receptor-expressing CHO cells (+++ MFI = 1000-4999)
Source text: as §1
(§2) Receptors were expressed on CHO cells, and all ligands were -Fc constructs. MFI was determined by flow cytometry with biotinylated Fc-ligands, after gating on receptor-positive cells. Binding affinity (Kd) was determined by competition radioligand binding assay. Kd is indicated (nM) and is the average value from at least 3 independent assays, except where indicated (*).

[4] = molecular target: gD-tagged full-length PVR expressed on stably transfected CHO cells (UniProt P15151); experiment: as above
PVR-Fc fusion protein [5] = molecular target: B1; experiment: competition radioligand binding, 125I Fc-ligand on receptor-expressing CHO cells, Scatchard
Description: (§3) Plasmids were transfected into CHO cells using Lipofectamine LTX (Invitrogen). Expression of gD-tagged proteins was verified by flow cytometry using the Alexa-647 anti-gD conjugate. Stably-transfected cell lines were sorted twice by FACS for purity before use. Fc-fusion proteins constructed as described above were iodinated (¹²⁵I) using the Iodogen method. Binding studies were carried out on stable transfectants in triplicate with 0.1-3 nM iodinated ligand. […] Cell suspensions were harvested onto nitrocellulose membranes (Millipore) and washed extensively.
as §2

PVR-Fc fusion protein [6] = molecular target: B1; experiment: competition radioligand binding on CHO cells; upper end tied by Table 6 to PVR-Fc on CHO-TIGIT; PVR-Fc ligand on CHO-TIGIT (upper end of the range)
Description: as §3
(§4) Non-specific binding was determined using 2000-fold excess cold ligand and subtracted from total binding.

[7] = molecular target: B6; experiment: flow cytometry, biotinylated ligand + streptavidin-PE vs receptor expression on CHO transfectants
Source text: as §1

[8] = molecular target: B6; experiment: Octet biosensor, TIGIT-Fc loaded on an anti-human Fc sensor
Description: (§5) The resulting fusion protein was transiently expressed in and purified from CHO cells using standard affinity chromatography techniques. […] Proteins were tested for binding in HBS-P (10 mM Hepes, pH 7.4; 0.15M NaCl; 0.005% Surfactant P20). […] The biosensors were washed in buffer (30 seconds), placed into wells containing 5 μg/mL protein for three minutes, and washed again for 30 seconds. The sensors were reloaded and washed after every two binding cycles.

[9] = molecular target: T1, TNFRSF10C (library protein); experiment: as above
Description: as §5

IL-19 (library protein) = molecular target: T2, IL-19 (library protein); experiment: as above
Description: as §5

ESAM (library protein) = molecular target: T3, ESAM (library protein); experiment: as above
Description: as §5

IGFBP4 (library protein) = molecular target: T4, IGFBP4 (library protein); experiment: as above
Description: as §5

TEK (library protein) = TEK (library protein) (UniProt Q02763 23-748, limits assumed); experiment: as above
Chain of TEK (library protein) (Q02763 23-748 limits assumed): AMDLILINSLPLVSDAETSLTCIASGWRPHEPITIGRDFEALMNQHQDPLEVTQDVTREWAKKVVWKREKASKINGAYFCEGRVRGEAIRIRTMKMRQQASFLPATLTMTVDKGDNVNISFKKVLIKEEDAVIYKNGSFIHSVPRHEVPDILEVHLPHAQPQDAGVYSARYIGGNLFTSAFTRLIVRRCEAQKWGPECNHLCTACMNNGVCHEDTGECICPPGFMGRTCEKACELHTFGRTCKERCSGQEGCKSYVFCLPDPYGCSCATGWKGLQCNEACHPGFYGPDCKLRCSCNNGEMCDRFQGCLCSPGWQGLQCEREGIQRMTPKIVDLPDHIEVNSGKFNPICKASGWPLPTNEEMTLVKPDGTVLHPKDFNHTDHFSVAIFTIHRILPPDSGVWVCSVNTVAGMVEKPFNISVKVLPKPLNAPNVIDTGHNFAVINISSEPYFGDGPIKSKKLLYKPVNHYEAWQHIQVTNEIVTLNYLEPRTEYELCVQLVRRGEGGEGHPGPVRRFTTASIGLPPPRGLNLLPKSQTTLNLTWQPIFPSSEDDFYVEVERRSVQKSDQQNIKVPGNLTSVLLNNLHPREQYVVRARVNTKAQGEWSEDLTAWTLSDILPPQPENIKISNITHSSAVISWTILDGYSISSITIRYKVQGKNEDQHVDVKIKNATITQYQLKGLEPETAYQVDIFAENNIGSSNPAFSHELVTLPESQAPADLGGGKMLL
Description: as §5

[10] = molecular target: T5, gD-tagged full-length PVR expressed on …; experiment: radioligand binding, iodinated TIGIT-Fc displaced by unlabeled TIGIT-Fc on PVR-expressing CHO cells
Description: as §3, §4

[11] = molecular target: T7, gD-tagged full-length CD226 expressed on stably transfected CHO cells (UniProt Q15762 19-336, limits assumed); experiment: flow cytometry, biotinylated ligand + streptavidin-PE vs receptor expression on CHO transfectants
T7 construct: whole, on cells; also called CHO-CD226
Source text: as §1

[12] = molecular target: T8, gD-tagged full-length CD96 expressed on stably transfected CHO cells (UniProt P40200 22-585, limits assumed); experiment: as above
T8 construct: whole, on cells; also called CHO-CD96; CD96-expressing CHO cells
Source text: as §1

B1
binding result [1]: no binding | binding result [2]: no binding

B2
MFI [3]: 1000 to 5000 mfi

B3
MFI [4]: 1000 to 5000 mfi

B4
Kd (PVR-Fc fusion protein [5]): 3.15 nM | Kd (PVR-Fc fusion protein [6]): 1 to 3 nM | binding result [7]: no binding

B5
binding result [8]: no binding

B6
MFI [3]: 1000 to 5000 mfi | binding result [9]: no binding | binding result (IL-19 (library protein)): no binding | binding result (ESAM (library protein)): no binding | binding result (IGFBP4 (library protein)): no binding | binding result (TEK (library protein)): no binding | IC50 (read off the curve) [10]: ~4 nM | binding result [11]: no binding | binding result [12]: no binding
